In article PMC9306533 (Journal of Neurochemistry, 2022):

Key:
[1] = target: GRK3 (G protein‐coupled receptor kinase 3) (UniProt P35626); experiment: BRET, CB1R-YFP and GRK3-Rluc8; conditions: sites S425,S429
β‐arrestin2 = β‐arrestin2 (UniProt P32121); experiment: BRET, CB1R-YFP and β-arrestin2-Rluc; conditions: reference: wild type; sites S425,S429
CB1R_6A‐YFP = CB1R_6A‐YFP (human, UniProt P21554 1-472, serine/threonine residues of 460TMSVSTDTS468 to alanine); experiment: FRET or BRET
CB1R_2D‐YFP = CB1R_2D‐YFP (human, UniProt P21554 1-472, S425 mutated into aspartate | S429D); experiment: FRET or BRET
CB1R_6D‐YFP = CB1R_6D‐YFP (human, UniProt P21554 1-472, serine/threonine residues of 460TMSVSTDTS468 to aspartic acid); experiment: FRET or BRET
CB1R_2A‐YFP = CB1R_2A‐YFP (human, UniProt P21554 1-472, S425A | S429A); experiment: FRET or BRET
CB1R‐YFP (wild type) = CB1R‐YFP (wild type) (human, UniProt P21554 1-472); experiment: FRET or BRET
[2] = reference: 460…468 mutant, S425/S429 intact

Q: For “Cannabinoid receptor 1 (CB1R) (from UniProt P21554) 425AMGDA429_460…468”, which “other: agonist-promoted mBRET at 5 min” value [1, 2] is on record?
A: weaker; reference 28.95 ± 2.18

Q: What about the “other: agonist-promoted mBRET at 30 min” value [1, 2] of the same molecule?
A: stronger; reference 27.11 ± 3.71

Q: “Cannabinoid receptor 1 (CB1R) (from UniProt P21554) CB1R_2A (S425A, S429A)” was tested. Which “other: agonist-promoted mBRET at 5 min” value (β‐arrestin2) did it give?
A: weaker; reference 29.33 ± 1.93

Q: And the “other: agonist-promoted mBRET at 5 min” value ([1]; reference: wild type)?
A: stronger; reference 23.62 ± 3.54

Q: With “Cannabinoid receptor 1 (CB1R) (from UniProt P21554) CB1R_2D (S425D, S429D)” as the molecule, how does the “other: agonist-promoted mBRET at 5 min” value (β‐arrestin2) read?
A: weaker; reference 29.93 ± 1.51

Q: What about the “other: agonist-promoted mBRET at 5 min” value ([1]; reference: wild type) of the same molecule?
A: same; reference 35.54 ± 2.26

B1: GRK3‐Rluc8 (enzyme, human, UniProt P35626 1-688, looked up)
chain: MADLEAVLADVSYLMAMEKSKATPAARASKRIVLPEPSIRSVMQKYLAERNEITFDKIFNQKIGFLLFKDFCLNEINEAVPQVKFYEEIKEYEKLDNEEDRLCRSRQIYDAYIMKELLSCSHPFSKQAVEHVQSHLSKKQVTSTLFQPYIEEICESLRGDIFQKFMESDKFTRFCQWKNVELNIHLTMNEFSVHRIIGRGGFGEVYGCRKADTGKMYAMKCLDKKRIKMKQGETLALNERIMLSLVSTGDCPFIVCMTYAFHTPDKLCFILDLMNGGDLHYHLSQHGVFSEKEMRFYATEIILGLEHMHNRFVVYRDLKPANILLDEHGHARISDLGLACDFSKKKPHASVGTHGYMAPEVLQKGTAYDSSADWFSLGCMLFKLLRGHSPFRQHKTKDKHEIDRMTLTVNVELPDTFSPELKSLLEGLLQRDVSKRLGCHGGGSQEVKEHSFFKGVDWQHVYLQKYPPPLIPPRGEVNAADAFDIGSFDEEDTKGIKLLDCDQELYKNFPLVISERWQQEVTETVYEAVNADTDKIEARKRAKNKQLGHEEDYALGKDCIMHGYMLKLGNPFLTQWQRRYFYLFPNRLEWRGEGESRQNLLTMEQILSVEETQIKDKKCILFRIKGGKQFVLQCESDPEFVQWKKELNETFKEAQRLLRRAPKFLNKPRSGTVELPKPSLCHRNSNGL
Q: What does the source list for B1?
A: agonist-promoted mBRET at 5 min (CB1R_6A‐YFP): 9.88 mBRET; agonist-promoted mBRET at 5 min (CB1R_2D‐YFP): 31.7 mBRET; agonist-promoted mBRET at 5 min (CB1R_6D‐YFP): 27.5 mBRET; agonist-promoted mBRET at 5 min (CB1R_2A‐YFP): 63.6 mBRET; agonist-promoted mBRET at 30 min (CB1R‐YFP (wild type)): 8.82 mBRET
